Where a chain is given by its changes, count along the chain named. Numbers in names are those of the source. Each block holds one molecule with its values, some of them ahead of it.
Assays:
[1] = molecular target: huCTLA4 (Homo sapiens, UniProt P16410); assay: Flow binding to CHO cells stably expressing CTLA4; parameters: huCTLA4 and huPD-L1, full-length mammalian surface expression constructs were generated; expressed in transfected cells; host or cells: CHO cells, lentiviral transduction, sorted to >98% purity; details: for CTLA4 MFI at 33.3 nM: CHO cells stably expressing CTLA4
Method in brief: (§1)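 Cells were first blocked in PBS with 1% BSA and 0.1% sodium azide. Primary staining with fusion protein ran 45 min on ice, and secondary staining with PE anti-human Fc at 1:150 ran 30 min on ice.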

[2] = molecular target: huPD-L1 (Homo sapiens, UniProt Q9NZQ7); assay: Flow binding to CHO cells stably expressing PD-L1; parameters: huCTLA4 and huPD-L1, full-length mammalian surface expression constructs were generated; expressed in transfected cells; host or cells: CHO cells, lentiviral transduction, sorted to >98% purity; details: for PD-L1 MFI at 33.3 nM: CHO cells stably expressing PD-L1
Method in brief: as §1

[3] = molecular target: T1, CD28 (Homo sapiens, UniProt P10747); assay: Flow binding to Jurkat/IL2 reporter cells (CD28); parameters: host or cells: Jurkat cells expressing an IL-2-luciferase reporter
Protocol: Binding of selected immunomodulatory fusion proteins to cognate binding partners was assessed. […] Cells were sorted in a Bio-Rad S3 Cell Sorter (Bio-Rad Corp., USA) to >98% purity. Jurkat/IL2 reporter cells, which endogenously express CD28, were used to detect binding to CD28.
For staining and analysis by flow cytometry, 100,000 cells of appropriate transfected cells were plated in 96-well round bottom plates. Cells were spun down and resuspended in staining buffer (phosphate buffered saline (PBS), 1% bovine serum albumin (BSA), and 0.1% sodium azide) for 20 minutes to block non-specific binding. […] Primary staining was performed on ice for 45 minutes, before washing cells in staining buffer twice. Phycoerythrin (PE)-conjugated anti-human Fc (Jackson ImmunoResearch, USA) was diluted 1:150, added to cells and incubated another 30 minutes on ice. Cells were then washed twice with 150 μL/well stain buffer, fixed in 2% formaldehyde/PBS, and analyzed on Intellicyt flow cytometer (Intellicyt Corp., USA). PE Mean Fluorescence Intensity (MFI) was calculated for each cell type with FlowJo Version 10 software (FlowJo LLC, USA).
Binding assays were carried out to assess the specificity and affinity of multivalent proteins to cell-expressed CTLA-4, CD28, and PD-L1 counter structures.
The EC50 for binding also was determined.

[4] = molecular target: T1, CD28; assay: Jurkat/IL2 + CHO/OKT3 +/- PD-L1 reporter assay: PD-L1-dependent CD28 costimulation; type: cell-based; parameters: host or cells: Jurkat cells expressing an IL-2-luciferase reporter; details: Jurkat/IL2 + CHO/OKT3/PD-L1
Method in brief: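 Readout is relative luminescence from lysed cocultures: test protein given 15 min at room temperature to Jurkat cells before adding CHO artificial APCs displaying OKT3 alone or OKT3 plus PD-L1, then 5 h at 37 °C, 5% CO2.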

[5] = Table E4, MFI ratio to WT CD80 ECD-Fc (R&D) at 33.3 nM
[6] = Table E19, Jurkats (CD28), 33.3 nM
[7] = Table E10, 33.3 nM, Jurkats (CD28)
[8] = Table E11, Jurkats (CD28), 33.3 nM
[9] = Table E23, CD80 IgV-Fc (inert) at 33.3 nM
[10] = Table E23, CD80 IgV-Fc (inert) at 33.3 nM, Jurkat (CD28)

Sequence of huCTLA4 (P16410 36-223): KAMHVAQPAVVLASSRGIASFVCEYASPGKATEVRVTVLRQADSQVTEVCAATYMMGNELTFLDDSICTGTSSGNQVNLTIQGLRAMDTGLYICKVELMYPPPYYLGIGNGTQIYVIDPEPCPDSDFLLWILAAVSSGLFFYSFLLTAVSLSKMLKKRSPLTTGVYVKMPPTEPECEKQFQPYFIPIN
Sequence of huPD-L1 (Q9NZQ7 19-290): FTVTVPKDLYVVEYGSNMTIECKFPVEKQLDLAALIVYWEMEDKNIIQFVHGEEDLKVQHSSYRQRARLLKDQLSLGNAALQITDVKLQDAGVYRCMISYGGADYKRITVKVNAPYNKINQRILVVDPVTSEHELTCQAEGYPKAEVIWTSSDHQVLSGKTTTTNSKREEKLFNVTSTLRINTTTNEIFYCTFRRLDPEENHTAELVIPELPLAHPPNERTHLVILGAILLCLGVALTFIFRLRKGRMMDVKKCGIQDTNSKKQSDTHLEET

- CTLA4 MFI at 33.3 nM ([1]; Table E4, 33.3 nM variant CD80 IgV-Fc): 807
- CTLA4 Fold change to WT CD80 [1, 5]: 0.01
- PD-L1 MFI at 33.3 nM ([2]; Table E4, 33.3 nM): 89775
- PD-L1 Fold change to WT CD80 [2, 5]: 7.56
- Ratio of PDL1:CD28 ([2]; Table E4, binding to PD-L1 compared to binding to CD28): 8
- CD28 MFI at 33.3 nM ([3]; Table E4, 33.3 nM, Jurkat cells (CD28)): 11736
- CD28 Fold change to WT CD80 [3, 5]: 0.65
B1: E35D/M47V/N48KN68M/K89N (protein)
chain: VIHVTKEVKEVATLSCGHNVSVEELAQTRIYWQKDKKMVLTMMSGDVKIWPEYKNRTIFDITNNLSIMILALRPSDEGTYECVVLKYENDAFKREHLAEVTLSVKAD

- Relative Luciferase Units (RLU), CD80 Conc 5.0 nM ([4]; Table E21, CD80 Conc 5.0 nM): 416 RLU
- PD-L1 MFI at 33.3 nM ([2]; Table E19, 33.3 nM): 5801
- CD28 MFI at 33.3 nM [3, 6]: 88.1
B2: M47L/L85Q (protein)
chain: B1 chain with D35E, V47L, K48N, M68V, L85Q, N89K

- Relative Luciferase Units (RLU), CD80 Cone 5.0 nM ([4]; Table E12, 5.0 nM): 2116 RLU
- PD-L1 MFI at 33.3 nM ([2]; Table E10, 33.3 nM): 5660
- CD28 MFI at 33.3 nM [3, 7]: 413
B4: E35D/M47V/N48K/L85M (protein)
chain: B1 chain with M68V, L85M, N89K

- CTLA4 MFI at 33.3 nM ([1]; Table E19, 33.3 nM): 3002
- CD28 MFI at 33.3 nM [3, 6]: 35
B5: L85Q (protein)
chain: B1 chain with D35E, V47M, K48N, M68V, L85Q, N89K

- Relative Luciferase Units (RLU), CD80 Cone 5.0 nM ([4]; Table E12, 5.0 nM): 1731 RLU
- PD-L1 MFI at 33.3 nM ([2]; Table E10, 33.3 nM): 3031
- CD28 MFI at 33.3 nM [3, 7]: 582
B6: E35D/N48K/L72V (protein)
chain: B1 chain with V47M, M68V, L72V, N89K

- CTLA4 MFI at 33.3 nM ([1]; Table E19, 33.3 nM): 4370
- CD28 MFI at 33.3 nM [3, 6]: 170
B9: N48K/K89N (protein)
chain: B1 chain with D35E, V47M, M68V

- CTLA4 MFI at 33.3 nM ([1]; Table E14, 33.3 nM): 10332
- CD28 MFI at 33.3 nM ([3]; Table E14, Jurkats (CD28), 33.3 nM): 1400
B13: E35D/M47LN68M/A71G/L85Q/D90G (protein, UniProt P33681 35-288, looked up, variant E35D M47L V68M A71G L85Q D90G)
T-lymphocyte activation …: VIHVTKEVKEVATLSCGHNVSVEELAQTRIYWQKDKKMVLTMMSGDLNIWPEYKNRTIFDITNNLSIMILGLRPSDEGTYECVVQKYEKGAFKREHLAEVTLSVKADFPTPSISDFEIPTSNIRRIICSTSGGFPEPHLSWLENGEELNAINTTVSQDPETELYAVSSKLDFNMTTNHSFMCLIKYGHLRVNQTFNWNTTKQEHFPDNLLPSWAITLISVNGIFVICCLTYCFAPRCRERRRNERLRRESVRPV

The remaining lines, values behind:

B3: E35D/L97R (protein)
chain: B1 chain with V47M, K48N, M68V, N89K, L97R
- Relative Luciferase Units (RLU), CD80 Cone 5.0 nM ([4]; Table E12, 5.0 nM): 914 RLU
- PD-L1 MFI at 33.3 nM ([2]; Table E10, 33.3 nM): 2614
- CD28 MFI at 33.3 nM [3, 7]: 44.6

B7: E35D/D46V/M47V/V68M/K89N (protein)
chain: B1 chain with D46V, K48N
- Relative Luciferase Units (RLU), CD80 Conc 5.0 nM ([4]; Table E21, CD80 Conc 5.0 nM): 817 RLU
- PD-L1 MFI at 33.3 nM ([2]; Table E19, 33.3 nM): 21603
- CD28 MFI at 33.3 nM [3, 6]: 2119

B8: A26E/E35D/V68M/A71G (protein)
chain: B1 chain with A26E, V47M, K48N, A71G, N89K
- Relative Luciferase Units (RLU), CD80 Conc 5.0 nM ([4]; Table E22, CD80 Conc 5.0 nM): 839 RLU
- PD-L1 MFI at 33.3 nM ([2]; Table E20, 33.3 nM): 12611
- CD28 MFI at 33.3 nM ([3]; Table E20, Jurkats (CD28), 33.3 nM): 135

B10: V22D/E24D/E35D/M47L/V68M (protein)
chain: VIHVTKEVKEVATLSCGHNVSDEDLAQTRIYWQKDKKMVLTMMSGDLNIWPEYKNRTIFDITNNLSIMILALRPSDEGTYECVVLKYEKDAFKREHLAEVTLSVKADFPTPSISDFETPTSNIRRIICSTSGGFPEPHLSWLENGEELNAINTTVSQDPETELYAVSSKLDFNMTTNHSFMCLIKYGHLRVNQTFNWNTTKQEHFPDN
modifications: CD80 v383 ECD
- Relative Luciferase Units (RLU), CD80 Cone 5.0 nM ([4]; Table E13, 5.0 nM): 974 RLU
- PD-L1 MFI at 33.3 nM ([2]; Table E11, 33.3 nM): 15418
- CD28 MFI at 33.3 nM [3, 8]: 1254

B11: E35D/D46E/M47L/V68M/T79M/L85M (protein, UniProt P33681 35-288, looked up, variant E35D D46E M47L V68M T79M L85M)
T-lymphocyte activation …: B13 T-lymphocyte activation … with D46E, G71A, T79M, Q85M, G90D
- Relative Luciferase Units (RLU), CD80 Cone 5.0 nM ([4]; Table E13, 5.0 nM): 1137 RLU
- PD-L1 MFI at 33.3 nM ([2]; Table E11, 33.3 nM): 8641
- CD28 MFI at 33.3 nM [3, 8]: 403

B12: E35D/D46V/M47L/V68M/L85Q/E88D GS(G4S)3 (protein, UniProt P33681 35-288, looked up, variant E35D D46V M47L V68M L85Q E88D)
T-lymphocyte activation …: B13 T-lymphocyte activation … with D46V, G71A, E88D, G90D
modifications: GS(G4S)3 linker
- Relative Luciferase Units (RLU), CD80 Conc 5.0 nM ([4]; Table E26, linker variants, 5.0 nM): 1592 RLU
- PD-L1 MFI at 33.3 nM ([2]; Table E25, linker variants, 33.3 nM): 22596
- CD28 MFI at 33.3 nM ([3]; Table E25, linker variants, 33.3 nM, Jurkats (CD28)): 267

B14: E35D/M47L/V68M/E95V/L97Q (protein, UniProt P33681 35-288, looked up, variant E35D M47L V68M E95V L97Q)
T-lymphocyte activation …: B13 T-lymphocyte activation … with G71A, Q85L, G90D, E95V, L97Q
modifications: Fc fusion
- Relative Luciferase Units (RLU), CD80 Cone 5.0 nM ([4]; Table E13, 5.0 nM): 1086 RLU
- PD-L1 MFI at 33.3 nM ([2]; Table E11, 33.3 nM): 18600
- CD28 MFI at 33.3 nM [3, 8]: 14

B15: H18V/E35D/M47V/V68M/A71G/D90G (protein, UniProt P33681 35-288, looked up, variant H18V E35D M47V V68M A71G D90G)
T-lymphocyte activation …: B13 T-lymphocyte activation … with H18V, L47V, Q85L
- Relative Luciferase Units (RLU), CD80 Conc 5.0 nM ([4]; Table E24, 5.0 nM): 854 RLU
- PD-L1 MFI at 33.3 nM [2, 9]: 43588
- CD28 MFI at 33.3 nM [3, 10]: 2115

B16: H18Y/E35D/V68M/L85M/R94Q (protein, UniProt P33681 35-288, looked up, variant H18Y E35D V68M L85M R94Q)
T-lymphocyte activation …: B13 T-lymphocyte activation … with H18Y, L47M, G71A, Q85M, G90D, R94Q
- Relative Luciferase Units (RLU), CD80 Cone 5.0 nM ([4]; Table E13, 5.0 nM): 195 RLU
- Relative Luciferase Units (RLU), CD80 Cone 5.0 nM ([4]; Table E17, consensus variants, 5.0 nM): 2215 RLU
- PD-L1 MFI at 33.3 nM ([2]; Table E11, 33.3 nM): 14410
- PD-L1 MFI at 33.3 nM ([2]; Table E16, consensus variants, 33.3 nM): 9283
- CD28 MFI at 33.3 nM [3, 8]: 14
- CD28 MFI at 33.3 nM ([3]; Table E16, consensus variants, Jurkats (CD28), 33.3 nM): 962

B17: H18Y/A26P/E35D/M47V/V68M/A71G (protein, UniProt P33681 35-288, looked up, variant H18Y A26P E35D M47V V68M A71G)
T-lymphocyte activation …: B13 T-lymphocyte activation … with H18Y, A26P, L47V, Q85L, G90D
- Relative Luciferase Units (RLU), CD80 Conc 5.0 nM ([4]; Table E24, 5.0 nM): 821 RLU
- PD-L1 MFI at 33.3 nM [2, 9]: 51521
- CD28 MFI at 33.3 nM [3, 10]: 6911

B18: H18Y/E35D/M47V/V68M/A71G (protein, UniProt P33681 35-288, looked up, variant H18Y E35D M47V V68M A71G)
T-lymphocyte activation …: B13 T-lymphocyte activation … with H18Y, L47V, Q85L, G90D
- Relative Luciferase Units (RLU), CD80 Conc 5.0 nM ([4]; Table E24, 5.0 nM): 963 RLU
- PD-L1 MFI at 33.3 nM [2, 9]: 64919
- CD28 MFI at 33.3 nM [3, 10]: 3227

From patent US20220177587A1, “METHODS AND USES OF VARIANT CD80 FUSION PROTEINS AND RELATED CONSTRUCTS” (Alpine Immune Sciences, Inc., priority 2018, published 2022)
